Laboratory results from patent US20200270310A1, “MAFG AS A POTENTIAL THERAPEUTIC TARGET TO RESTORE CHEMOSENSITIVITY IN PLATINUM-RESISTANT CANCER CELLS” (FUNDACÓIN PARA LA INVESTIGACIÓN BIOMÉDICA DEL HOSPITAL …, priority 2017, published 2020).
Entries after “also recorded” stand apart in the source; their conditions may differ.

Key:
[1] = system: H23S cells; experiment: ROS production after CDDP exposure, sensitive cells; type: cell-based, human
Experimental: FIG. 2. Viability assays and Reactive Oxygenated Species detection after CDDP treatment in H23 cell lines. (A) Viability to CDDP in H23S (left) and H23R (right) at 24, 48 and 72 hours and 6 concentrations of CDDP measured by MTT assay. (B) Increment of ROS production in H23S (left) and H23R (right) after 24, 48 and 72 hours of CDDP treatment. $: 72h (vs Basal).
(§1) H23/A2780 cells were cultured in 96-well black plates at density of 10,000 cells/well. Cells were treated with 6 different doses of CDDP for 24, 48 and 72 h in RPMI containing 10% FBS. Then treatments were removed and cells were loaded with the fluorescent probe 2′,7′-dichlorodihydrofluorescein diacetate (H2DCFDA) (10 μM) for 45 minutes in RPMI medium (FBS free). Cells were washed twice with RPMI (10% FBS), and fluorescence was recorded in a Fluostar Optima, each hour, over 4 hours period. […] ROS production was calculated dividing the mean H2DCFDA fluorescence by the mean viability. […] All experiments included cells treated with RPMI alone (Basal), and one well without cells as fluorescence basal.
(§2) H23/A2780 cells were cultured in 96-well black plates at density of 10,000 cells/well. […] Cells were washed twice with RPMI (10% FBS), and fluorescence was recorded in a Fluostar Optima at 520 nm after excitation at 485 nm. […] ROS production was calculated dividing the mean H2DCFDA fluorescence by the mean viability. […]

[2] = system: human MAFG peptides M1-M10; experiment: ELONA of aptamers with 10 MAFG peptides; type: binding; settings: digoxigenin aptamer 20 nM, 1 μg peptide, absorbance at 405 nm
Experimental: FIG. 9. Characterization of the interaction of aptamers with MAFG. ELONAS in which the Aptamers bound to digoxigenin (20 nM) were incubated 1 hour at 37° C. with 10 peptides (1 μg) previously attached to the plate overnight. After incubating 1 hour with antidigoxigenin-Peroxidase 1/1000, ABTS was added and at 10 minutes the absorbance at 405 nm was measured.
In order to identify compounds of the invention and starting from the amino acidic sequence of human MAFG (NCBI Reference Sequence: NP_116100.2) of: SEQ ID NO 2: […]); we designed the following 10 peptides (please refer to table below):
Peptide M4, amino acids 49-68 corresponds to the basic MAFG region containing the tyrosine residue (Tyr64), as well as the arginine residue (Arg57) required for binding to the DNA, in addition to a nuclear localization signal.

[3] = target: T1, MAFG in H23S and H23R cells (Homo sapiens, UniProt O15525); experiment: Aptacytochemistry with digoxigenin-labeled individual aptamers; type: cell-based
T1 construct: endogenous in cells; host or cells: H23S and H23R (NSCLC cells, fixed)
Experimental: Following the methodology described above, H23R cells were incubated with 6 pmol of digoxigenin-labeled aptamers (IBA Life Sciences) in selection buffer for 1 hour at room temperature. Subsequently, cells were washed three times with PBS and incubated with anti-digoxigenin conjugated with 5′ AlexaFluor 488 (R&D systems, USA) at 1/500 dilution in blocking buffer for 1 hour at room temperature, as secondary antibody. Finally, the cells were mounted on glass slides using glycerol-buffer containing p-phenylenediamine and 1/750 dilution of Dapi for nuclear staining. Controls were made by omitting the aptamer. Colocalization was assessed by confocal microcopy as described in (iii).

[4] = system: H23R cells; experiment: ROS production and viability after aptamer transfection and CDDP treatment; type: cell-based, human
Experimental: FIG. 7: Viability and ROS production assay in H23R cells after apMAFG6F transfection. Each experimental group was exposed for 72 h to 6 different CDDP concentrations, and data were normalized to each untreated control, set to 100%. The data represent the mean±SD of at least 2 independent experiments performed in duplicate at each drug concentration for each cell line analyzed.
as §1, §2

Row | Molecule | ROS production versus basal untreated cells ([1]; 3.00 μg/ml CDDP) [%] | ROS after treatment with the drug ([1]; Example 1) | interaction of aptamers with the 10 MAFG peptides by ELONA [2] | cellular localization of the aptamer [3] | number of dots per nucleus, H23R versus H23S [3] | cell viability after aptamer transfection and CDDP ([4]; measured in parallel to ROS) | ROS production after aptamer transfection and CDDP ([4]; resistant cells carrying aptamer vs untransfected, p<0.005 at 4 μg/ml CDDP)
1 | [NH2][Pt]([NH2])([Cl])[Cl] [CDDP, Cisplatin] | 300 | increased | – | – | – | – | –
2 | GCGGATGAAGACTGGTGTCGATGCATGTGTAGTGCATTTCGAGCCGTTCTATTGGTGTGCCCTAAATACGAGCAAC (nucleic acid, chemistry not given here, DNA aptamer selected against the MAFG protein by SELEX) GCGGATGAAGACTGGTGTCGATGCATGTGTAGTGCATTTCGAGCCGTTCTATTGGTGTGCCCTAAATACGAGCAAC | – | – | recognized peptide M4 | preferentially located at the nuclei | remarkable differences | decrease of cell viability; also recorded: decrease in cell viability | increase of ROS production; also recorded: linear dose-response relationship
